Targets include K48-linked diUb (UniProt P0CG48 1-76, K48-linked (isopeptide linkage between the two Ub units)); linear diUb (UniProt P0CG48 1-76; P0CG48 1-76); ubiquitin (Ub) (UniProt P0CG48 1-76).
What all share (assay): ITC
(In general: Isothermal titration calorimetry measures the heat released or taken up as one component is titrated into another.)

Results on 1 molecule are retold here after PMC3247260 (2011).

B1: tandem UBA domains of USP13 (USP13-UBA12, residues 652-776) (domain or fragment)
chain: DIDESSVMQLAEMGFPLEACRKAVYFTGNMGAEVAFNWIIVHMEEPDFAEPLTMPGYGGAASAGASVFGASGLDNQPPEEIVAIITSMGFQRNQAIQALRATNNNLERALDWIFSHPEFEEDSDF
Regarding B1, the values for the Kd with K48-linked diUb, in the test with linear diUb and with ubiquitin (Ub) were 1800 nM, 2300 nM and 21000 nM, respectively.
